Assays:
[1] = molecular target: T1, Cd28 with EGFP-tag (labeled protein of the MST assay) (zebrafish); test: MST; Monolith NT.115; labeled proteins (Cd28/Ctla-4 with EGFP-tag) incubated with 16 doubling dilutions of unlabeled Cd80/86 from 3.2 µM, 10 min at room temperature; 25℃, 40% LED, medium MST power
T1 construct: zebrafish Cd28; identifier not given

[2] = molecular target: T2, Ctla-4 with EGFP-tag (labeled protein of the MST assay) (zebrafish); test: as above
T2 construct: zebrafish Ctla-4 (XM_005167519.4)
T2 sequence (partner, as listed by the source): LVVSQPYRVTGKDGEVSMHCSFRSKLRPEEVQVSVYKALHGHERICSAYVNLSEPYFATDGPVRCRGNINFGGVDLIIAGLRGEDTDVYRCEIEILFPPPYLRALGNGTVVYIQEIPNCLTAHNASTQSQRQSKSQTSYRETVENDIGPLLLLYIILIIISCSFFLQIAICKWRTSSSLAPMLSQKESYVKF

T1 sequence (partner, as listed by the source): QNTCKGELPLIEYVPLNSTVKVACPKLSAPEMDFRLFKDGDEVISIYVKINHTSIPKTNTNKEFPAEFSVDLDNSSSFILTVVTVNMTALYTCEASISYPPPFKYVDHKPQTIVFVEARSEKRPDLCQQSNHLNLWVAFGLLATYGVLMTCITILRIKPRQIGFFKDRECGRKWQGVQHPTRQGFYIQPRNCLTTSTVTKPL

Kd [1]: 2.64 µM
Kd [2]: 0.5 µM
B1: soluble Cd80/86 (extracellular domain) (domain or fragment)
chain: DNSQPKNISAVVGRSVTFRCPWNLSIPVYRLYIQKLENQPLFINGFNNGKKLPVSPEYQDRTEVNQAELSMEMTNIKLSDEGSYECVVFSSTSSRDIFQINLKVTAEFTTPESKSECSENDGAKKGRSCQMSCSAAGGYPVSDVKWLGLNQSRIRVLQNETAENSTSKTWSVNQTINYTCEHPINVSCDIGGSDSHTITICEAESFPLK

— article doi:10.1101/2024.07.24.604955, “Unraveling the Role of Ctla-4 in Intestinal Immune Homeostasis: Insights from a novel Zebrafish Model of Inflammatory Bowel Disease” (bioRxiv, 2024)
